Results from the DeepSol protein solubility set.

Assay: soluble on expression in E. coli; label from the status in PepcDB or PDB records

Sequence | soluble on expression in E. coli
MGSDKIHHHHHHMSFNIGLSGIQAASSGLNVTGNNIANAGTVGFKQSRAEFADVYAASVLGSGSNPQGSGVLLSDVSQMFKQGNIDSTNSVLDLAINGNGFFVTSNNGAISYTRAGYFNTDKQDFIVDNNGYRLQGYAVGPNGQLQNGVVTDLKVERANQAPQATSSIQQSYNLNSTLKPPTVTPFDPSDAATYNSSSSLGIYDSQGNSHTMSQFFIKNEPDPNATPPIPENSWTMKVLIDGVNPLDPSNKTPMSFNVTFDASGQMTSVRAPDGSTSGPGFSIDATTNVIQFSPATGNPPTPGTGWIPAASDGKTPPTYAWNGATGAASGISFDMRKTTQYSTAFAQSNPIQDGYTTGQLAGLEIDDTGVIFARYTNGQSKVQGQVVLANFANIQGLTPIGKTSWVQSSESGEPAVGAPRSGTLGALQSGALEASNVDISNELVNLIVHQRNYQANAKTIQTEDAVTQTIINLR | not soluble
MITPDLESGVKVWHLVKNHDHGDQKEGDRGSKMVSEIYLTRLLATKGTLQKFVDDLFETLFSTVHRGSALPLAIKYMFDFLDEQADRHSIHDTDVRHTWKSNCLPLRFWVNVIKNPQFVFDIHKGSITDACLSVVAQTFMDSCSTSEHRLGKDSPSNKLLYAKDIPSYKNWVERYYADIAKLPAISDQDMNAYLAEQSRLHATEFNMLSALNEIYSYVSKYSEELIGALEQDEQARRQRLAYKVEHLINAMSIES | not soluble
MLDPRLSVAPMVDRTDRHFRFLVRQVSLGVRLYTEMTVDQAVLRGNRERLLAFRPEEHPIALQLAGSDPKSLAEAARIGEAFGYDEINLNLGCPSEKAQEGGYGACLLLDLARVREILKAMGEAVRVPVTVKMRLGLEGKETYRGLAQSVEAMAEAGVKVFVVHARSALLALSTKANREIPPLRHDWVHRLKGDFPQLTFVTNGGIRSLEEALFHLKRVDGVMLGRAVYEDPFVLEEADRRVFGLPRRPSRLEVARRMRAYLEEEVLKGTPPWAVLRHMLNLFRGRPKGRLWRRLLSEGRSLQALDRALRLMEEEVGEEGEKEKPGPRGQREAAPGPAREGV | soluble
MPKSNPVTPNKQPSEDWNELLTEFRGKGGRALQKTFIRKLWAVQEDIIANANPSTLRCIFFAPALLICPEGIKLSAEILPKIGVGNGLILLEKLILKFNLTDTECQRYGEVFVTAWRNAYQEANFDLTEELETDVISVMCQHALYAHRPTCTKFQNVIAAFAHAKKLDKSVDEMVTRLLNGCLYRALDAPNYIVQSSAAEVFFNFYPLIGEDTEDMDRIMENQHRYMMDLLRSDVISIRSEATKHVLKAISEFWLLIPKNIVKELMGYIIDTVAKDTVVSVRVAVFEGLNEMAFVPACLTAFEYGLKCAVDPALQDKSERVRLAAYQIISRLKNHKFISVFDIITRDDAIAKLDLENVETCRRQLIPIMHICLPISKSLDEAYYRPRVNYMLGKSRLALLSYFRLLGPMKIIDASQASKLIEMFITWAYRYLRKKDGPPLPETAEGYKKARAYLECALILYMSCKGMLMSDGDGTSKAKCDQIFGKVVKEIFEKYANTPILGTATAISSVIPKDYLKSIANDVLARLEDDDVPPEAVEPFLESAIHFNPDSVFDSFDSGLNVLVNLYGTKQSKKKRRELEDPEDVLIMTLNRLKYLLQSHSTSNLIAMKDEYRTKVLDLLKKIDLIREGIEIRLAKEEGQEHTLSDDVLLSILEFRFILPFFAATNGSEDAADRNQTIESMKNLLLWFEKNISSQMATFGEHNQDFLIQLTSTFLNCVNVSLSAYDFKTRPVEFEDEEDNENRDPREENDAAKDQATVAEVISRIVKSFCNSSTPFEIFRPALRVGTTLCDESYSEVHHEMALLLRFIPKWMNKQCDLMEDDEENIFKNHREIVESLRQFHKRVSETDYWDEDSAKRMMHHFMLFSIVSASSKNDDEAYDDPRDEDYKPPHFISLALIKFILKEKSLTEDIIEEISTNYIPEDSKYFTAEEGELKTDEKLSKLAALSQLLRILERYSKFHGKLIKEAIDKCTTRVLDCFANASDLNTVAHHILNSLSSLLDVQLPDENRL | not soluble
MGSDKIHHHHHHVSRLDQLNDWLHQALQGKPHHLTTASADASFRRYFRVHLADGATLIAMDAPPPQEDCRPFVKVAALFEQAGLNVPKVLAQDVENGFLLLTDLGAQTFLDVLNEDNADTLFRDAIDALVTWQLASRPGVLPAYDEALLRRELCLFPDWYVARHLNVELSESQRSTLENAFSTIVRYNLAQPSVYVHRDYMPRNLMISTPSPGILDFQDAVYGPISYDVASLFKDAFISWQEERVLDGTIRYWEKARKAGLPVRSDFGDFYRDFEWMGLQRHLKVLGIFARIHYRDGKPKYLADTPRFMNYVRQVCVRYGELRPLLRLLDELEKREPQFGYTF | not soluble
